These results are taken from article PMC10786891, “Massively parallel profiling of RNA-targeting CRISPR-Cas13d”.

T1: EsCas13d, nuclease-dead (Eubacterium siraeum, UniProt B0MS50, R295A;H300A;R849A;H854A)
T1 sequence: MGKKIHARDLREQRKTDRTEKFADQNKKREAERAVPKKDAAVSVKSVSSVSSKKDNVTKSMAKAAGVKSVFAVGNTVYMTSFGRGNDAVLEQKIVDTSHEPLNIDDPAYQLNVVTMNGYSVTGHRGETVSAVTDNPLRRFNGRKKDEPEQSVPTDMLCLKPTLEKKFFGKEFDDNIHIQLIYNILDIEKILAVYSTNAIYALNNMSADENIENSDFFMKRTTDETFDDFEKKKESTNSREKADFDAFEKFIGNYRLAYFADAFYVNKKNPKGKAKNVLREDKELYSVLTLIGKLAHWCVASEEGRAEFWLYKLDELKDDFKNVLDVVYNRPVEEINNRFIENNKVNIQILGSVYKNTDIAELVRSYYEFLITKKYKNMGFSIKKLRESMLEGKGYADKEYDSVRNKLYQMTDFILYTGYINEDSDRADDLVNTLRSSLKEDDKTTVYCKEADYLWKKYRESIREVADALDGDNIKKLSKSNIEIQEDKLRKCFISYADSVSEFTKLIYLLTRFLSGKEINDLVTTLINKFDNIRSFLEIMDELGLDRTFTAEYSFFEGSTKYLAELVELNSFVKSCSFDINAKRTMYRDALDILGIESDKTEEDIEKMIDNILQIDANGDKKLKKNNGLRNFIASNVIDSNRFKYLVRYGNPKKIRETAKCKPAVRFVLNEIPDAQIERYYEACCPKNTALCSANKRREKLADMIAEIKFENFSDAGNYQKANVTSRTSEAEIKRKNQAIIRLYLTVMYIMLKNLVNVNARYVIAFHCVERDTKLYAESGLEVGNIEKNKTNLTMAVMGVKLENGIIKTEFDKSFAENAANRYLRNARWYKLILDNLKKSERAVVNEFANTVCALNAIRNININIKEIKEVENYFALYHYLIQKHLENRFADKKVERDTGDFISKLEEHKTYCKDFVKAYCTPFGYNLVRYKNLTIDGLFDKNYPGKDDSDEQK

B1: target 1 G15A,A18C (mixed)
RNA 1: CACCCGUGCAAAAAUGCAGGGGUCUAAAACUGAGCGGAUAACCUCUCUAUGG
RNA 2: GGGAAUGGAUCCACAUCUACGAAUUCGUACCAUCGAAAGGUUAUCCGCUCACCGAGAUCGGAAGAGCACACGU
B2: target 1 insA 3' of 22,insC 3' of 10 (mixed)
RNA 1: CACCCGUGCAAAAAUGCAGGGGUCUAAAACUGAGCGGAUAACCUCUCUAUGG
RNA 2: GGGAAUGGAUCCACAUCUACGAAUUCGUACACAUAGAGAGGUUCAUCCGCUCACCGAGAUCGGAAGAGCACACGU
B3: target 1 insA 3' of 7,insA 3' of 4 (mixed)
RNA 1: CACCCGUGCAAAAAUGCAGGGGUCUAAAACUGAGCGGAUAACCUCUCUAUGG
RNA 2: GGGAAUGGAUCCACAUCUACGAAUUCGUACCAUAGAGAGGUUAUCACGCAUCACCGAGAUCGGAAGAGCACACGU
B4: target 1 insC 3' of 8,insG 3' of 7 (mixed)
RNA 1: CACCCGUGCAAAAAUGCAGGGGUCUAAAACUGAGCGGAUAACCUCUCUAUGG
RNA 2: GGGAAUGGAUCCACAUCUACGAAUUCGUACCAUAGAGAGGUUAUCCGCGCUCACCGAGAUCGGAAGAGCACACGU
B5: target 1 U8G,G15U (mixed)
RNA 1: CACCCGUGCAAAAAUGCAGGGGUCUAAAACUGAGCGGAUAACCUCUCUAUGG
RNA 2: GGGAAUGGAUCCACAUCUACGAAUUCGUACCAUAGAUAGGUUAGCCGCUCACCGAGAUCGGAAGAGCACACGU
B6: target 1 insC 3' of 17,insG 3' of 16 (mixed)
RNA 1: CACCCGUGCAAAAAUGCAGGGGUCUAAAACUGAGCGGAUAACCUCUCUAUGG
RNA 2: GGGAAUGGAUCCACAUCUACGAAUUCGUACCAUAGCAGGAGGUUAUCCGCUCACCGAGAUCGGAAGAGCACACGU
B7: target 1 insC 3' of 17,insC 3' of 1 (mixed)
RNA 1: CACCCGUGCAAAAAUGCAGGGGUCUAAAACUGAGCGGAUAACCUCUCUAUGG
RNA 2: GGGAAUGGAUCCACAUCUACGAAUUCGUACCAUAGCAGAGGUUAUCCGCUCACCCGAGAUCGGAAGAGCACACGU
B8: target 1 insC 3' of 15,insU 3' of 15 (mixed)
RNA 1: CACCCGUGCAAAAAUGCAGGGGUCUAAAACUGAGCGGAUAACCUCUCUAUGG
RNA 2: GGGAAUGGAUCCACAUCUACGAAUUCGUACCAUAGAGCUAGGUUAUCCGCUCACCGAGAUCGGAAGAGCACACGU
B9: target 1 insG 3' of 21,insG 3' of 21 (mixed)
RNA 1: CACCCGUGCAAAAAUGCAGGGGUCUAAAACUGAGCGGAUAACCUCUCUAUGG
RNA 2: GGGAAUGGAUCCACAUCUACGAAUUCGUACCGGAUAGAGAGGUUAUCCGCUCACCGAGAUCGGAAGAGCACACGU
B10: target 1 insC 3' of 5,insG 3' of 4 (mixed)
RNA 1: CACCCGUGCAAAAAUGCAGGGGUCUAAAACUGAGCGGAUAACCUCUCUAUGG
RNA 2: GGGAAUGGAUCCACAUCUACGAAUUCGUACCAUAGAGAGGUUAUCCGCCGUCACCGAGAUCGGAAGAGCACACGU
B11: target 1 A9U,U11C (mixed)
RNA 1: CACCCGUGCAAAAAUGCAGGGGUCUAAAACUGAGCGGAUAACCUCUCUAUGG
RNA 2: GGGAAUGGAUCCACAUCUACGAAUUCGUACCAUAGAGAGGCUUUCCGCUCACCGAGAUCGGAAGAGCACACGU
B12: target 1 insG 3' of 16,insU 3' of 15 (mixed)
RNA 1: CACCCGUGCAAAAAUGCAGGGGUCUAAAACUGAGCGGAUAACCUCUCUAUGG
RNA 2: GGGAAUGGAUCCACAUCUACGAAUUCGUACCAUAGAGGUAGGUUAUCCGCUCACCGAGAUCGGAAGAGCACACGU
B13: target 1 C4A,U10G (mixed)
RNA 1: CACCCGUGCAAAAAUGCAGGGGUCUAAAACUGAGCGGAUAACCUCUCUAUGG
RNA 2: GGGAAUGGAUCCACAUCUACGAAUUCGUACCAUAGAGAGGUGAUCCGAUCACCGAGAUCGGAAGAGCACACGU
B14: target 1 insG 3' of 8,insA 3' of 7 (mixed)
RNA 1: CACCCGUGCAAAAAUGCAGGGGUCUAAAACUGAGCGGAUAACCUCUCUAUGG
RNA 2: GGGAAUGGAUCCACAUCUACGAAUUCGUACCAUAGAGAGGUUAUGCACGCUCACCGAGAUCGGAAGAGCACACGU
B15: target 1 insU 3' of 12,insC 3' of 9 (mixed)
RNA 1: CACCCGUGCAAAAAUGCAGGGGUCUAAAACUGAGCGGAUAACCUCUCUAUGG
RNA 2: GGGAAUGGAUCCACAUCUACGAAUUCGUACCAUAGAGAGGUUUACUCCGCUCACCGAGAUCGGAAGAGCACACGU
B16: target 1 insU 3' of 12,insA 3' of 11 (mixed)
RNA 1: CACCCGUGCAAAAAUGCAGGGGUCUAAAACUGAGCGGAUAACCUCUCUAUGG
RNA 2: GGGAAUGGAUCCACAUCUACGAAUUCGUACCAUAGAGAGGUUAUAUCCGCUCACCGAGAUCGGAAGAGCACACGU
B17: target 1 insA 3' of 2 (mixed)
RNA 1: CACCCGUGCAAAAAUGCAGGGGUCUAAAACUGAGCGGAUAACCUCUCUAUGG
RNA 2: GGGAAUGGAUCCACAUCUACGAAUUCGUACCAUAGAGAGGUUAUCCGCUCAACCGAGAUCGGAAGAGCACACGU
B18: target 1 insC 3' of 22,insC 3' of 20 (mixed)
RNA 1: CACCCGUGCAAAAAUGCAGGGGUCUAAAACUGAGCGGAUAACCUCUCUAUGG
RNA 2: GGGAAUGGAUCCACAUCUACGAAUUCGUACCCACUAGAGAGGUUAUCCGCUCACCGAGAUCGGAAGAGCACACGU
B19: target 1 insU 3' of 17,insC 3' of 9 (mixed)
RNA 1: CACCCGUGCAAAAAUGCAGGGGUCUAAAACUGAGCGGAUAACCUCUCUAUGG
RNA 2: GGGAAUGGAUCCACAUCUACGAAUUCGUACCAUAGUAGAGGUUACUCCGCUCACCGAGAUCGGAAGAGCACACGU
B20: target 1 insA 3' of 11,insU 3' of 7 (mixed)
RNA 1: CACCCGUGCAAAAAUGCAGGGGUCUAAAACUGAGCGGAUAACCUCUCUAUGG
RNA 2: GGGAAUGGAUCCACAUCUACGAAUUCGUACCAUAGAGAGGUAUAUCUCGCUCACCGAGAUCGGAAGAGCACACGU
B21: target 1 C2G,G13A (mixed)
RNA 1: CACCCGUGCAAAAAUGCAGGGGUCUAAAACUGAGCGGAUAACCUCUCUAUGG
RNA 2: GGGAAUGGAUCCACAUCUACGAAUUCGUACCAUAGAGAAGUUAUCCGCUGACCGAGAUCGGAAGAGCACACGU
B22: target 1 insG 3' of 9,insC 3' of 9 (mixed)
RNA 1: CACCCGUGCAAAAAUGCAGGGGUCUAAAACUGAGCGGAUAACCUCUCUAUGG
RNA 2: GGGAAUGGAUCCACAUCUACGAAUUCGUACCAUAGAGAGGUUAGCUCCGCUCACCGAGAUCGGAAGAGCACACGU
B23: target 1 U19A,C21U (mixed)
RNA 1: CACCCGUGCAAAAAUGCAGGGGUCUAAAACUGAGCGGAUAACCUCUCUAUGG
RNA 2: GGGAAUGGAUCCACAUCUACGAAUUCGUACUAAAGAGAGGUUAUCCGCUCACCGAGAUCGGAAGAGCACACGU
B24: target 1 insA 3' of 17,insG 3' of 8 (mixed)
RNA 1: CACCCGUGCAAAAAUGCAGGGGUCUAAAACUGAGCGGAUAACCUCUCUAUGG
RNA 2: GGGAAUGGAUCCACAUCUACGAAUUCGUACCAUAGAAGAGGUUAUGCCGCUCACCGAGAUCGGAAGAGCACACGU
B25: target 1 A9U,U19G (mixed)
RNA 1: CACCCGUGCAAAAAUGCAGGGGUCUAAAACUGAGCGGAUAACCUCUCUAUGG
RNA 2: GGGAAUGGAUCCACAUCUACGAAUUCGUACCAGAGAGAGGUUUUCCGCUCACCGAGAUCGGAAGAGCACACGU
B26: target 1 insU 3' of 9,insC 3' of 8 (mixed)
RNA 1: CACCCGUGCAAAAAUGCAGGGGUCUAAAACUGAGCGGAUAACCUCUCUAUGG
RNA 2: GGGAAUGGAUCCACAUCUACGAAUUCGUACCAUAGAGAGGUUAUUCCCGCUCACCGAGAUCGGAAGAGCACACGU
B27: target 1 insU 3' of 1 (mixed)
RNA 1: CACCCGUGCAAAAAUGCAGGGGUCUAAAACUGAGCGGAUAACCUCUCUAUGG
RNA 2: GGGAAUGGAUCCACAUCUACGAAUUCGUACCAUAGAGAGGUUAUCCGCUCAUCCGAGAUCGGAAGAGCACACGU

The data set concerns the target T1, EsCas13d, nuclease-dead. In words: crRNA (strand 1, pre-loaded); Mg2+; 40 mM Tris-HCl pH 7.5, 150 mM NaCl, 6 mM MgCl2, 1 mM DTT, 0.1% Tween-20, 0.2 mg/ml BSA; 25 C; 10 min per concentration, then washed. Particulars: tags: His6-TwinStrep-SUMO cleaved; N-terminal SNAP kept (SNAP-Surface 488); label: 3' end held by stalled T7 RNA polymerase.
As usually defined, the Kd is a measure of binding affinity in units of concentration. B1 showed a Kd of 0.081 ± 0.015 µM.

In turn, B2 yielded an equilibrium dissociation constant (Kd) of 0.029 ± 0.004 µM.

Molecule B3 gave a Kd of 0.00453 ± 0.00023 µM.

B4: the Kd is 0.0103 ± 0.0009 µM.

As for B5, the Kd turned out to be 0.073 ± 0.012 µM.

B6 had a dissociation constant (Kd) of 0.064 ± 0.006 µM.

Molecule B7 returned a Kd of 0.039 ± 0.004 µM.

Take B8: the Kd stood at 0.0233 ± 0.0011 µM.

The molecule B9 had an equilibrium dissociation constant (Kd) of 0.087 ± 0.024 µM.

Take B10: the Kd stood at 0.0092 ± 0.0008 µM.

On to B11, for which the Kd was 0.013 ± 0.001 µM.

Molecule B12 returned a Kd of 0.026 ± 0.004 µM.

With B13, binding was put at a Kd of 0.0101 ± 0.0009 µM.

For the molecule B14, binding was characterised by a dissociation constant (Kd) of 0.0106 ± 0.0006 µM.

B15 had a dissociation constant (Kd) of 0.0116 ± 0.0006 µM.

Turning to B16, the Kd amounted to 0.013 ± 0.0009 µM.

B17 yielded a Kd of 0.0085 ± 0.0005 µM.

B18 came in with a Kd of 0.0133 ± 0.0017 µM. This Kd lies about 1.6-fold higher than the previous one.

In turn, B19 registered a Kd of 0.0251 ± 0.0016 µM.

As to B20, binding was characterised by a dissociation constant (Kd) of 0.048 ± 0.005 µM.

Consider B21, for which the Kd came out at 0.0054 ± 0.0006 µM.

Molecule B22 had a Kd of 0.0172 ± 0.0007 µM.

As for B23, the equilibrium dissociation constant (Kd) amounted to 0.0103 ± 0.001 µM.

B24 returned a Kd of 0.0147 ± 0.0017 µM.

In turn, B25 displayed a Kd of 0.072 ± 0.009 µM.

Consider B26, for which the Kd turned out to be 0.042 ± 0.01 µM.

B27 showed a Kd of 0.0096 ± 0.0004 µM.
